Data taken from publication PMC5707514.

Target: Aβ(M1-42) (UniProt P05067)
Test: fibrils trapped on a 0.2 μm filter, tryptic digest and MALDI-TOF MS; 1:1 mixture of ^15N-Aβ42 and ^14N-Aβ40 monomers, 3 μM total, 5 μM ThT, 37 °C; samples taken at the first and second ThT plateau, fibrils washed with Milli-Q water

Sequence of Aβ(M1-42) (P05067 671-713): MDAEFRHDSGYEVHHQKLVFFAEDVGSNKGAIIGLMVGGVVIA

Substance “Aβ(M1-40) (from UniProt P05067 672-711) (peptide)” has a percent of Aβ40 contained in the fibrils at the first plateau of under 13%.
